Source: patent US20160272680A1 (Bristol-Myers Squibb, published 2016)
Numbered stars: 1 amine (or outer) side, 2 acyl side, 3 side chain; on linkers, the order of the positions; unused ones are H or OH. Bridge positions count the residues as written; N and C are the ends. Square brackets hold non-standard residues; d marks the D form. Ends that are not written are not given here. * marks the point of attachment. Trp(1-CH2CO) = O=C([C@H](Cc1cn(CC(=O)[*:3])c2ccccc12)N[*:1])[*:2]; Hyp = O=C(O)[C@@H]1C[C@@H](O)CN1; NMeNle = CCCC[C@H](NC)C(=O)O; NMeA = CN[C@@H](C)C(=O)O; Dab = NCC[C@H](N)C(=O)O; Dap = NC[C@H](N)C(=O)O; NH(propargyl) = C#CCN*; NHBn = c1ccc(CN*)cc1

Legend:
hPDL1(19-239)-TVMV-His [1] = target: T1, hPDL1(19-239)-TVMV-His (human, UniProt Q9NZQ7 19-239); experiment: HTRF competition of PD-1-Ig binding to PD-L1-His; code A=0.01-0.06 µM
T1 construct: Expressed in HEK293T cells; The text says amino acids 18-239, but the construct is named hPD-L1(19-239); The whole entry, including the TVMV site and His tag, is the protein used in the assay; also called PD-L1-TVMV-His; PD-L1-His
T1 sequence (Q9NZQ7 other isoform, or with tags, fused parts or gaps limits assumed): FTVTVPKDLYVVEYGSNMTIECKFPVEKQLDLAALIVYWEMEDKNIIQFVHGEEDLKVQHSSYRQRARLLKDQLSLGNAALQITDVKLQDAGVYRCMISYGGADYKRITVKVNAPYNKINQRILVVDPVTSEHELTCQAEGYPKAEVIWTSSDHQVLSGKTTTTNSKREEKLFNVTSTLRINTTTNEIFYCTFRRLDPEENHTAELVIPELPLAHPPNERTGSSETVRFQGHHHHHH
Protocol: (§1) Homogenous Time-Resolved Fluorescence (HTRF) Assays of Binding of Soluble PD-1 to Soluble PD-L1. Soluble PD-1 and soluble PD-L1 refers to proteins with carboxyl-end truncations that remove the transmembrane-spanning regions and are fused to heterologous sequences, specifically the Fc portion of the human immunoglobuling G sequence (Ig) or the hexahistidine epitope tag (His). All binding studies were performed in an HTRF assay buffer consisting of dPBS supplemented with 0.1% (w/v) bovine serum albumin and 0.05% (v/v) Tween-20. For the PD-1-Ig/PD-L1-His binding assay, inhibitors were pre-incubated with PD-L1-His (10 nM final) for 15 m in 4 μl of assay buffer, followed by addition of PD-1-Ig (20 nM final) in 1 μl of assay buffer and further incubation for 15 m. PD-L1 fusion proteins from either human, cynomologous macaques, mouse, or other species were used. HTRF detection was achieved using europium crypate-labeled anti-Ig monoclonal antibody (1 nM final) and allophycocyanin (APC) labeled anti-His monoclonal antibody (20 nM final). Antibodies were diluted in HTRF detection buffer and 5 μl was dispensed on top of binding reaction. The reaction was allowed to equilibrate for 30 minutes and signal (665 nm/620 nm ratio) was obtained using an EnVision fluorometer. Additional binding assays were established between PD-1-Ig/PD-L2-His (20 and 5 nM, respectively), CD80-His/PD-L1-Ig (100 and 10 nM, respectively) and CD80-His/CTLA4-Ig (10 and 5 nM, respectively). Binding/competition studies between biotinylated Compound No. 71 and human PD-L1-His were performed as follows. Macrocyclic peptide inhibitors were pre-incubated with PD-L1-His (10 nM final) for 60 minutes in 4 μl of assay buffer followed by addition of biotinylated Compound No. 71 (0.5 nM final) in 1 μl of assay buffer. Binding was allowed to equilibrate for 30 minutes followed by addition of europium crypated labeled Streptavidin (2.5 pM final) and APC-labeled anti-His (20 nM final) in 5 μl of HTRF buffer. The reaction was allowed to equilibrate for 30 m and signal (665 nm/620 nm ratio) was obtained using an EnVision fluorometer.

hPDL1(19-239)-TVMV-His [2] = target: T1, hPDL1(19-239)-TVMV-His; experiment: HTRF competition of PD-1-Ig binding to PD-L1-His; code B=0.004-0.0099 µM
Protocol: as §1

Row | Binder | IC50 (hPDL1(19-239)-TVMV-His [1]) | IC50 (hPDL1(19-239)-TVMV-His [2])
1 | {CH2CO}-Y[NMeA]NP[Dap]L[Hyp]WGW[NMeNle][NMeNle]LCG-{pyrrolidin‑1‑yl amide} (thioether N-14, Macrocyclic peptide) [Example 13085] | 10 to 60 nM | 
2 | {CH2CO}-Y[NMeA]NP[Dap]L[Hyp]WGW[NMeNle][NMeNle]LCG-{piperidin‑1‑yl amide} (thioether N-14, Macrocyclic peptide) [Example 13086] |  | 4 to 9.9 nM
3 | {CH2CO}-Y[NMeA]NP[Dap]L[Hyp]WGW[NMeNle][NMeNle]LCG-{morpholine amide} (thioether N-14, Macrocyclic peptide) [Example 13087] | 10 to 60 nM | 
4 | {CH2CO}-Y[NMeA]NP[Dap]L[Hyp]WGW[NMeNle][NMeNle]LCG-{methylpiperazine amide} (thioether N-14, Macrocyclic peptide) [Example 13089] | 10 to 60 nM | 
5 | {CH2CO}-Y[NMeA]NP[Dap]L[Hyp]W[Dab][Trp(1-CH2CO)][NMeNle][NMeNle]LCG-NHBn (thioether N-14; SMILES CCCC[C@H]1C(=O)N(C)[C@@H](CCCC)C(=O)N[C@@H](CC(C)C)C(=O)N[C@H](C(=O)NCC(=O)NCc2ccccc2)CSCC(=O)N[C@@H](Cc2ccc(O)cc2)C(=O)N(C)[C@@H](C)C(=O)N[C@@H](CC(N)=O)C(=O)N2CCC[C@H]2C(=O)N[C@@H](CN)C(=O)N[C@@H](CC(C)C)C(=O)N2C[C@H](O)C[C@H]2C(=O)N[C@@H](Cc2c[nH]c3ccccc23)C(=O)N[C@@H](CCN)C(=O)N[C@@H](Cc2cn(CC(=O)O)c3ccccc23)C(=O)N1C, Macrocyclic peptide) [Example 13080] |  | 4 to 9.9 nM
6 | {CH2CO}-Y[NMeA]NP[Dap]L[Hyp]WGW[NMeNle][NMeNle]LCG-cyclopropylamide (thioether N-14, Macrocyclic peptide) [Example 13091] |  | 4 to 9.9 nM
7 | {CH2CO}-Y[NMeA]NP[Dap]L[Hyp]WGW[NMeNle][NMeNle]LCG-cyclobutylamide (thioether N-14, Macrocyclic peptide) [Example 13092] | 10 to 60 nM | 
8 | {CH2CO}-Y[NMeA]NP[Dap]L[Hyp]WGW[NMeNle][NMeNle]LCG-{3‑(aminomethyl)pyridine amide} (thioether N-14, Macrocyclic peptide) [Example 13094] | 10 to 60 nM | 
9 | {CH2CO}-Y[NMeA]NP[Dap]L[Hyp]WGW[NMeNle][NMeNle]LCG-{ethanolamine amide} (thioether N-14, Macrocyclic peptide) [Example 13095] | 10 to 60 nM | 
10 | {CH2CO}-Y[NMeA]NP[Dap]L[Hyp]WGW[NMeNle][NMeNle]LCG-{NH(propargyl)} (thioether N-14; SMILES C#CCNC(=O)CNC(=O)[C@@H]1CSCC(=O)N[C@@H](Cc2ccc(O)cc2)C(=O)N(C)[C@@H](C)C(=O)N[C@@H](CC(N)=O)C(=O)N2CCC[C@H]2C(=O)N[C@@H](CN)C(=O)N[C@@H](CC(C)C)C(=O)N2C[C@H](O)C[C@H]2C(=O)N[C@@H](Cc2c[nH]c3ccccc23)C(=O)NCC(=O)N[C@@H](Cc2c[nH]c3ccccc23)C(=O)N(C)[C@@H](CCCC)C(=O)N(C)[C@@H](CCCC)C(=O)N[C@@H](CC(C)C)C(=O)N1, Macrocyclic peptide) [Example 13096] | 10 to 60 nM | 
11 | {CH2CO}-Y[NMeA]NP[Dap]L[Hyp]WGW[NMeNle][NMeNle]LCG-allylamide (thioether N-14, Macrocyclic peptide) [Example 13097] | 10 to 60 nM | 
12 | {CH2CO}-Y[NMeA]NP[Dap]L[Hyp]WGW[NMeNle][NMeNle]LCG-{N,N‑dimethyl‑1,3‑propanediamine amide} (thioether N-14, Macrocyclic peptide) [Example 13098] | 10 to 60 nM | 
13 | {CH2CO}-Y[NMeA]NP[Dap]L[Hyp]WGW[NMeNle][NMeNle]LCG-{1‑(3-aminopropyl)imidazole amide} (thioether N-14, Macrocyclic peptide) [Example 13099] | 10 to 60 nM | 
14 | {CH2CO}-Y[NMeA]NP[Dap]L[Hyp]WGW[NMeNle][NMeNle]LCG-butylamide (thioether N-14, Macrocyclic peptide) [Example 13100] | 10 to 60 nM | 
15 | {CH2CO}-Y[NMeA]NP[Dap]L[Hyp]WGW[NMeNle][NMeNle]LCG-{2‑(phenylthio)ethanamine amide} (thioether N-14, Macrocyclic peptide) [Example 13101] | 10 to 60 nM | 
16 | {CH2CO}-Y[NMeA]NP[Dap]L[Hyp]WGW[NMeNle][NMeNle]LCG-{4‑(dimethylamino)piperidine amide} (thioether N-14, Macrocyclic peptide) [Example 13103] | 10 to 60 nM | 
17 | {CH2CO}-Y[NMeA]NP[Dap]L[Hyp]WGW[NMeNle][NMeNle]LCG (thioether N-14; not fully specified (C-terminus), Macrocyclic peptide) [Example 13104] | 10 to 60 nM | 
18 | {CH2CO}-Y[NMeA]NP[Dap]L[Hyp]WGW[NMeNle][NMeNle]LCG-{4‑aminocyclohexanol} (thioether N-14, Macrocyclic peptide) [Example 13106] | 10 to 60 nM | 
19 | {CH2CO}-Y[NMeA]NP[Dap]L[Hyp]WGW[NMeNle][NMeNle]LCG-{N‑(3-aminopropyl)diethanolamine} (thioether N-14, Macrocyclic peptide) [Example 13107] | 10 to 60 nM | 
20 | {CH2CO}-Y[NMeA]NP[Dap]L[Hyp]WGW[NMeNle][NMeNle]LCG-{2‑phenoxyethylamine} (thioether N-14, Macrocyclic peptide) [Example 13108] | 10 to 60 nM | 
21 | {CH2CO}-Y[NMeA]NP[Dap]L[Hyp]WGW[NMeNle][NMeNle]LCG-{tert‑butyl 3‑aminopropanoate} (thioether N-14, Macrocyclic peptide) [Example 13109] | 10 to 60 nM | 
22 | {CH2CO}-Y[NMeA]NP[Dap]L[Hyp]WGW[NMeNle][NMeNle]LCG-{3‑aminopropanamide} (thioether N-14, Macrocyclic peptide) [Example 13110] |  | 4 to 9.9 nM
23 | {CH2CO}-Y[NMeA]NP[Dap]L[Hyp]WGW[NMeNle][NMeNle]LCG-{4‑piperidinemethanol} (thioether N-14, Macrocyclic peptide) [Example 13111] | 10 to 60 nM | 
24 | {CH2CO}-Y[NMeA]NP[Dap]L[Hyp]WGW[NMeNle][NMeNle]LCG-{N‑Boc‑1,5‑diaminopentane} (thioether N-14, Macrocyclic peptide) [Example 13112] | 10 to 60 nM | 
25 | {CH2CO}-Y[NMeA]NP[Dap]L[Hyp]WGW[NMeNle][NMeNle]LCG-{2‑methoxyethylamide} (thioether N-14, Macrocyclic peptide) [Example 13082] | 10 to 60 nM | 
26 | {CH2CO}-Y[NMeA]NP[Dap]L[Hyp]WGW[NMeNle][NMeNle]LCG-{N‑(2-aminoethyl)‑N‑methyl carbamic acid tert‑butyl ester} (thioether N-14, Macrocyclic peptide) [Example 13113] | 10 to 60 nM | 
27 | {CH2CO}-Y[NMeA]NP[Dap]L[Hyp]WGW[NMeNle][NMeNle]LCG-{4‑(4-chlorophenyl)piperidine} (thioether N-14, Macrocyclic peptide) [Example 13115] | 10 to 60 nM | 
28 | {CH2CO}-Y[NMeA]NP[Dap]L[Hyp]WGW[NMeNle][NMeNle]LCG-{2‑aminoethylmethylsulfone} (thioether N-14, Macrocyclic peptide) [Example 13116] | 10 to 60 nM | 
29 | {CH2CO}-Y[NMeA]NP[Dap]L[Hyp]WGW[NMeNle][NMeNle]LCG-{N‑methyl‑N‑propylamide} (thioether N-14, Macrocyclic peptide) [Example 13084] | 10 to 60 nM | 
